Molecular target: latent myostatin
Test: BLI
Settings: second pH 7.4

SRK-015
dissociation rate (koff), fold lower at pH 7.4 than at pH 5.0: approximately 20-fold

Source: article PMC6927069
